Patent publication US20220195015A1 (published 2022)
Substitutions are numbered along the chain they refer to.

B1: C088 (antibody, V domains shown)
VH: QVQLVQSGAEAKKPGASVKVSCKTSGYTFTNYFMHWVRQAPGQGPEWMGIIDSSDGGASYAQKFQGRVTMTRDTSTSTVYMELRSLKFEDTAVYYCARASTSTTSWSDALSLGSWGQGTLVTVSS
VL: QSVLTQPPSVSGAPGQRVTISCTGSSSNIGGGSVVHWYQQLPGTAPKLLIYANSNRPSGVPDRFSGSKSGTSASLAIAGLQAEDEADYYCQSWDNGLSASGVVFGGGTKLTVL
B2: C089 (antibody, V domains shown)
VH: QVQLVESGGGVVQPGRSLRLSCAASGFTFRTYAMHWVRQAPGKGLEWVAVILSDGNNKYYADSVKGRFTISRDNSKNTLYLQMNSLRAEDTAIFYCAREQEANYYDISGYYHWGESLGYWGQGTLVTVSS
VL: DIQLTQSPSFLSASVGDRVTITCRASQGISSYLAWYQQKPGKAPKLLIYGASTLQSGVPSRFSGSGSGTEFTLTISSLQPEDFASYYCQKVNSHPPGLTFGGGTKVEIK
B3: C090 (antibody, V domains shown)
VH: B2 VH
VL: B2 VL with L46F, H94Y
B4: C518 (antibody, V domains shown)
VH: EVQLVESGGGLIQPGGSLRLSCAASGITVSSNYMSWVRQAPGKGLEWVSVMYAGGSSFYADSVKGRFTISRDNSKNTLYLQMNSLRVEDTAVYYCARDLIALGVDVWGQGTTVTVSS
VL: DIQLTQSPSFLSASVGDRVTITCRASQGISSYLAWYQQKPGKAPKLLIYAASTLQSGVPSRFSGSGSGTEFTLTISSLQPEDFATYYCQLLNSYPMCSFGQGTKLEIK
B5: C519 (antibody, V domains shown)
VH: QVQLQESGPGLVKPSETLSLTCAVSGGSISSYYWSWIRQPPGKGLEWIGYIDTSGSTNYNPSLKSRVTMSVDTSKNQFSLNVNSVTAADTAVYFCGVCAGDCYAASVFDYRGQGTLVTVSS
VL: DIQMTQSPSSLSASVGDRVTITCQASQDIIFYLNWYQQKPGKAPKLLIYDASNLKTGVPSRFSGSGSGTDFAFTISSLQPEDIATYYCQQYDNLPLTFGGGTKVEIK
B6: C502 (antibody, V domains shown)
VH: QVQLVQSGAEVKKPGSSVKVSCKASGDTFSSHAINWVRQAPGQGLEWMGRSIPMLGVTTSAQKFKGRVTITADHSTSTVFMDLSSLRSDDTAIYYCARGVVGATPGSFDLWGQGTMVTVSS
VL: EIVMTQSPATLSVSPGKRATLSCRASQSVRSNLAWYQQRPGQAPRLLIYDAATRATGIPTRFSGSGSGTEFTLTISSLQSEDFAVYYCQQYDNGLTFGGGTKVEIK
B7: C503 (antibody, V domains shown)
VH: QVQLQESGPGLVQPSGTLSLSCTVTGGSISSNNWWSWVRQSPVKGLEWIGEIYHNGNINYNPSLKSRVTMSIDKSKNHFSLKLSSVTAADTAVYYCARGDVLDWFDPWGQGTLVTVS
VL: QSALTQPASVSGSPGQSITFSCTGTSSDVGAYNYISWYQQHPGKAPKLMIYDVNNRPSGVSRRFSGSKSGNTASLTISGLQSEDEADYFCSSYAGNSTVRFGGGTKLTVL
B8: C504 (antibody, V domains shown)
VH: QVQLQESGPGLVKPSETLSLTCTVSGGSISSSYWNWIRQSPGKGLEWIGYIYYDGYTTFNPSLKSRVTISVDTSKNQFSLKLSSVTAADTAFYYCAAGLKGRSSSWYEYWGQGTLVTVSS
VL: DIQMTQSPSSLSASVGDRVTITCRASQSISSYLNWYQQKPGKAPKLLIYATSSLQSGVPSRFSGSGSGTDFTLTITSLQPEDFATYYCQQTYSSPHTFGQGTKLEIK
B9: C505 (antibody, V domains shown)
VH: EVQLLESGGGLVQPGGSLRLSCADSGFSFSTYGMSWVRQAPGKGLEWVSTISGSGDNTYHADSVKGRFTISRDNSKNTLYLQMNSLRAEDTAVYYCAKNIAEMSTFDDYFYYYGMDVWGQGTTVTVSS
VL: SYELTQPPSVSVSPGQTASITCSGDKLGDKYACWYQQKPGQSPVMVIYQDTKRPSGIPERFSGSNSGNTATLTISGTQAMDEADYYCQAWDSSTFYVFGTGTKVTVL
B10: C506 (antibody, V domains shown)
VH: EVQLVESGGGLVQPGGSLRLSCAASGFTFSSYDMHWVRQGTGKGLEWVSVIGTAGDAYYPGSVKGRFTISRENAKNSLYLQMNSLRAGDTAVYYCARMVYDSSGFKGYFDLWGRGTLVTVSS
VL: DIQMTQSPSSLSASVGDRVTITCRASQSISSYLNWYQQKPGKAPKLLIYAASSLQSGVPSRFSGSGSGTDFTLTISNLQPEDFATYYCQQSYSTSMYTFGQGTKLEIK
B11: C507 (antibody, V domains shown)
VH: EVQLVESGGGVVQPGRSLRLSCAASGFTFSSYAIHWVRQAPGKGLEWVAVISFDGSNKYYRDSVKGRFTISRDNGKNTLYLQMNSLRAEDTAVYYCAKAALGYCTNGVCYCDNWGQGTLVTVSS
VL: NFMLTQPHSVSESPGKTVTISCTGSSGSIASNYVQWYQQRPGSAPTTVIYEDNQRPSGVPDRFSGSIDSSSNSASLSISGLKTEDEADYYCQSYDINSLWVFGGGTRLTVL
B12: C509 (antibody, V domains shown)
VH: QVQLQESGPGLVKPSGTLSLTCAVSGGSISSSNWWSWVRQPPGKGLEWIGEIYNSGSTNYNPSLKSRVTILVDKSKNQFSLKLSSVTAADTAVYYCAGSYSNYIGGVWFDPWGQGTLVTVSS
VL: EIVLTQSPATLSLSPGERATLSCRASQSVSTYLAWYQQKPGQAPRLLIYDASNRATGIPARFSGSGSGTDFTLTISSLEPEDFAVYYCQQRNNWLTFGGGTKVEIK
B13: C510 (antibody, V domains shown)
VH: QVQLQQWGAGLLKPSETLSRTCAVYGGSFSGYYWSWFRQSPGKGLEWIGEINHSGSTNYNPSLKNRVTISVDTSKNQFSLMLSSVTAADTAVYYCARGGFGVVINYYYSGMDVWGRGTTVTVSS
VL: not shown
B14: C511 (antibody, V domains shown)
VH: EVQLVESGGGLVQPGGSLRLSCAATEITVSSNYMTWVRQAPGKGLEWVSVIYPGGSTFYADSVKGRFSISRDNSKNTLYLQMNSLRAEDTAVYYCARDLVVYGLDCWGQGTLVTVSS
VL: DIQLTQSPSFLSASVGDRVTITCRASQGISSYLAWYQQKPGKAPKLLIYAASTLQSGVPSRFSGSGSGTEFTLTISSLQPEDFATYYCQQLNTYPPPFGGGTKVEIK
B15: C512 (antibody, V domains shown)
VH: QVQLQESGPGLVKPSGTLSLTCAVSAGSISSNNWWSWVRQPPGKGLEWIGEVYHNGNINYNPSLKSRVTLSVDKSKNQFSLKLSSVTAADTAVYYCAKGGDRAMGPEYFDSWGQGTLVTVSS
VL: QSALTQPASVSGSPGQSITISCTGTSSDVGANNYVSWYQQHPGKAPKLMIYDVNERPSGVSNRFSGSKSGNTASLTISGLQTEDEADYYCSSFASSSTLLFGGGTKLTVL
B16: C513 (antibody, V domains shown)
VH: EVQLLESGGGLVQPGGSLRLSCVASGFSFSTYAMSWVRQAPGQGLEWVSTITGTSIGTYYADSVKGRFTISRDNSKNTVFLQMKSLRAEDAAVYYCANHPLASGDEYYYYYMDVWGKGTTVTVSS
VL: EIVLTQSPDTLSLSPGERATLSCRASQSVHSKQLAWYQQKPGQAPRLLIYGASSRATGIPDRFSGSGSGTDFTLTISRLEPEDFAVYYCQQYGSIRALTFGGGTKVEIK
B17: C514 (antibody, V domains shown)
VH: EVQLVESGGGLVQPGGSLRLSCAASEFIVTRNYMSWVRQAPGKGLEWVSLIYPGGSTFYADSVKGRFTISRDNSKNTLFLHMNSLRAEDTAVYYCARDLAGRLDYWGQGTLVTVSS
VL: DIQMTQSPSSLSASVGDRVTITCQASQDINNFLNWYQQKPGKAPKLLIYDASNLETGVPSRFSGSGSGTDFTFTISSLQPEDIAIYYCQQYDSLSRLTFGGGTKVEIK
B18: C515 (antibody, V domains shown)
VH: EVQLVESGGGLVQPGGSLRLSCAASGFIVSSNYMSWVRQAPGKGLEWVSILYSGGSTYYADSVKGRFTISRDNSKNTLYLQMNSLRAEDTAVYYCARDLVVYGADYWGQGTLVTVSS
VL: B14 VL with T93S
B19: C516 (antibody, V domains shown)
VH: QVQLVQSGAEVKKPGSSVKVSCKASGGTFSSYAISWVRQAPGQGLEWMGRIIPMLVIATYARKFQGRVTITADKSTSTAYMELSSLRSEDTAVYYCARGVVAATPGNFDIWGQGTMVTVSS
VL: B6 VL with K17E, R30S, R39K, D50G, A52S, T60A, D92N
B20: C517 (antibody, V domains shown)
VH: B17 VH with T30S, P53S, F58Y, F79Y, H81Q, V92M, L99I
VL: B17 VL with N30S, N31K, F32Y, I83F, I85T, Q90H
B21: C597 (antibody, V domains shown)
VH: QVQLVQSGPEVKKPGTSVKVSCKASGFTFTNSAVQWVRQSRRQRLEWIGWIVVGSGNTNYAQKFQERVTITRDMSTSTAYMELSSLRSEDTAVYYCAAVDCNSTSCYDAFDIWGQGTMVTVSS
VL: EIVLTQSPGTLSLSPGERATLSCRASQSFRSSYLAWYQQKPGQAPRLLIYGASSRATGIPDRFSGSGSGSDFTLTISRLEPEDFAVYYCQQYDISPWTFGQGTKVEIK
B22: C598 (antibody, V domains shown)
VH: QVQLVQSGPEVKKPGTSVKVSCKASGFTFSSSAVQWVRQARGQRLEWIGWIVVGSGNTNYAQKFQERVTITRDMSTSTAYMELSSLRSEDTAVFYCAAPYCNVTTCFDGFNIWGRGTMVTVSS
VL: B21 VL with F29V, L34F, G51A, S70T, V86L, D93G, I94S
B23: C523 (antibody, V domains shown)
VH: QVQLQESGPGLVKPSETLSLTCTVSGASISSHYWSWIRQPPGKGLEWIGYIHYIGSTNYNPSLKSRVTILLDTSKNQFSLRLRSVTAADTAVYYCARGWPYCGVDCYSGFDYWGQGTLVTVSS
VL: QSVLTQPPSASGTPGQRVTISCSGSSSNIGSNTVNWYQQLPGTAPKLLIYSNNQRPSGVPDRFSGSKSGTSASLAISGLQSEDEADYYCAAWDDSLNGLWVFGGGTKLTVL
B24: C524 (antibody, V domains shown)
VH: EVQLVESGGDLIQPGGSLRLSCAASGFSVSNSYMSWVRQAPGKGLEWVSIIYSGGSTYYADSVKGRFTISRDNSKNTLYLQMNSLRAEDTAVYFCAKTPRGDYDSSGTSAYWGQGTLVTVSS
VL: QLVLTQSPSASASLGASVNLTCTLSSGHSSYAIAWHQQQPEKGPRFLMKLSSDGSHNKGDGIPDRFSGSSSGAERFLTISSLQSEDEADYYCQTWGIGSDWVFGGGTKLTVL

Legend:
[1] = biological target: SARS-CoV-2 spike protein receptor binding domain (RBD) (SARS-CoV-2, UniProt P0DTC2 319-539); assay: ELISA on coated RBD protein
[2] = biological target: SARS-CoV-2 spike protein receptor binding domain (RBD), wild type (SARS-CoV-2, UniProt P0DTC2 319-539); assay: ELISA, RBD protein coated on plate, antibody titrated

| Binder | EC50 [1] | EC50 [2] |
| --- | --- | --- |
| B1 | 2.44 ng/mL | – |
| B2 | 4.69 ng/mL | – |
| B3 | 6.22 ng/mL | – |
| B4 | 1.13 ng/mL | – |
| B5 | 1.07 ng/mL | – |
| B6 | – | 6.48 ng/mL |
| B7 | – | 6.55 ng/mL |
| B8 | – | 9.08 ng/mL |
| B9 | – | 16 ng/mL |
| B10 | – | 5.94 ng/mL |
| B11 | – | 5.6 ng/mL |
| B12 | – | 4.44 ng/mL |
| B13 | – | 308 ng/mL |
| B14 | – | 1.33 ng/mL |
| B15 | – | 1.68 ng/mL |
| B16 | – | 1.31 ng/mL |
| B17 | – | 0.82 ng/mL |
| B18 | – | 1.73 ng/mL |
| B19 | – | 5.72 ng/mL |
| B20 | – | 0.87 ng/mL |
| B21 | – | 3.77 ng/mL |
| B22 | – | 3.78 ng/mL |
| B23 | – | 9.08 ng/mL |
| B24 | – | 5 ng/mL |
